# According to US20220356259A1:
# Residue numbers refer to the chain shown, from its start.
# B1: isolated antigen-binding protein C3E2 (antibody, human IgG1, kappa, V domains shown)
# VH: QVQLQESGPGILQPSQTLSLTCSFSGFSLSTFGMGVGWIRQPSGKGLEWLVLILWNDIKYYNPALKSLLTVSKDTSNNQVFLKIASVDTADTATYYCARVDGYYGYFDVWGTGTTVTVSS
# VL: DIVMTQSPLSLPVSLGDQASISCRSSQTIVHSNGNTYLEWYLQKPGQSPKLLIYKVSNRFSGVPDRFSGSGSGTDFTLKISRVEAEDLGVYYCFQGSHVPWTFGGGTKLEIKR
# B2: isolated antigen-binding protein 3E2 1-2 (antibody, human IgG1, kappa, V domains shown)
# VH: QVTLQESGPTLVKPTQTLTLTCTFSGFSLSTFGMGVGWIRQPPGKGLEWLVLILWNDIKYYNPALKSLLTVTKDTSKNQVVLTITNMDPVDTATYYCARVDGYYGYFDVWGQGTMVTVSS
# VL: B1 VL with S14T, D17Q, Q18P, K44R, L88V, L109V
# How the values were obtained:
# [1] = biological target: fusion protein in which the extracellular domain of Cynomolgus monkey GITR is fused with the domain of mouse IgG1-Fc (Cynomolgus monkey); assay: ELISA, cynoGITR-muFc coated at 5 ug/ml, anti-human IgG-HRP (FIG. 7)
# fusion protein in which the extracellular domain of Cynomolgus monkey GITR is fused with the domain of mouse IgG1-Fc (Cynomolgus monkey), sequence (chain, as listed by the source limits assumed, form in doubt): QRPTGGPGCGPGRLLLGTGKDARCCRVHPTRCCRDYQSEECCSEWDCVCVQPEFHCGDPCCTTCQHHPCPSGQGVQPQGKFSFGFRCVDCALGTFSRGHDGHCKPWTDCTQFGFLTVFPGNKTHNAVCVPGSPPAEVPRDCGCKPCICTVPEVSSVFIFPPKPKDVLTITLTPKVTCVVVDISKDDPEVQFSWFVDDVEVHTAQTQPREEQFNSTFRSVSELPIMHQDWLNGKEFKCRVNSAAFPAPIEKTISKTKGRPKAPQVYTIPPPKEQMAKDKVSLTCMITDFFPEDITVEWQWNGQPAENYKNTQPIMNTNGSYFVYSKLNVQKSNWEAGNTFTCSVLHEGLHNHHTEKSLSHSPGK
# [2] = biological target: fusion protein in which the extracellular domain of Cynomolgus monkey GITR is fused with the domain of mouse IgG1-Fc (Cynomolgus monkey); assay: ELISA, cynoGITR-muFc coated at 5 ug/ml, anti-human IgG-HRP (FIG. 8)
Binder,EC50 [1],EC50 [2]
B1,0.0704 mg/L,0.0747 mg/L
B2,0.0517 mg/L,–
